assay: yeast display, Sf9 membrane polyspecificity reagent, FACS + sequencing; frameworks hold sequencing errors
Procedure, shortened: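 Nanobodies from a synthetic yeast display library (Saccharomyces cerevisiae BJ5465), induced 36–48 hours with galactose, were stained 1 hour at 4 °C with 10% biotinylated, detergent-solubilized Sf9 membrane reagent, enriched on streptavidin microbeads, then FACS-sorted. Anti-HA (expression) and streptavidin (reagent binding) fluorescence set low and high (top ~1%) gates. Polyreactivity labels come from the gate of origin. Genes were colony-PCR amplified, MiSeq 2 × 250 sequenced and filtered by CDR length.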

Sequence | polyreactivity (PSR sort gate)
QVHLVESGGGLVQAGGSLRLSSAASGFIFGKNDMGWYRQAPGKERELVAAITIGGSTNYADSVKGRFTISRDNAKNTVYLQLNSLKPEDTAVYYCAADSSSLYNYWGQGTQVTVSS | low polyreactivity
QVHLVESGGGLVQAGGSLRLSSAASGLIFYHYAMGWYRQAPGNERELVAAITKRGGSTYYADSVKGRFTISRDNAKNTVYLQINSLKQEDTAVYYCAADGVRYTQSFEMYWGQGTQVTVSS | high polyreactivity
QVHLVESGGGLVQAGGSLRLSSAASGRIFPWNAMGWYRQAPGKERELVAAISFSAGRTYYADSVKGRFTISRDNAKNTVYLQMNSLKPEDTAVYYCNARIGSRGVWTGIIGYEYWGQGTQVTVSS | low polyreactivity
QVHLVESGGGLVQAGGSLRLSWAASGRNFTRYAMGWYSQAPGKERELVASIRHSGGSTYYADSVKGRFTISRDNAKKTVYLLINSLKPEDTADFYCAARGKKGTRYKYNYWGQRTQVTVSS | high polyreactivity
QVHLVESGGGLVQAGGSLRLTCAASGSIFSYAMGWYRQAPGKESELVAAISSGGGRTYYADSVKGRFTISRDNAKNTVYLQMNRLKPEDTAVYFCAAVGLPQGRYGYWGQGTQVTLSS | high polyreactivity
QVHLVESGGGLVQAGGSLRLTCAASGSIFTYNAMGWYRQAPGKEREFVAAISRCGGNTKYADSVKGRFTISRDNAKNTVYFQMNSLKPEDTAVYYCAVRTIAYSGFRYNYWGQGTQVTVSS | high polyreactivity
QVHLVESGGGLVQAGGSLSLSCDASGYIISSYVMGWYRQAPGKERELVAAISRRGGSTYYADSVKGRFTISRDNAKNTVYLQMNSLIPEDTAVYYCAADGLSGYGSGRYYGMGYCGQGTQVTVSS | high polyreactivity
QVHLVESGGGLVQAGGSRRLSCAASGFTLSYYAMGWYRQAPGKERELVATISRVGTTYADSVKGRFTISRDNAKNTVYLQMNSLKPEDTAVYYCAVRSRWPYYFTRGVREGDYWGQGTQVTVSS | high polyreactivity
QVHLVESGGGLVQAGGTLRLRCAASGSTFVYNDMGWYRQAPGKERELVAAISTSGGSTYYADSVKGRFTISRDNAKNTVYLQMNSLKPEDTAVYFCAVDSYYFGYWAIQWEGDYWGQGTQVTVSS | low polyreactivity
QVHLVESGGGLVQAGGTLRLSCAASGRIFHPNEMRWYRQAPGKEWELVAAISWRGTSTYADSVKGRFTISRDNAKNTVYLQMNSLKPEDTAVYYCVRRYTGLPGWSSYGSYESGYWGQGTQVTVSS | high polyreactivity
QVHLVESGGGLVQAGRSLRLICAASGSTFPTYAMGWYRQAPGKETELVAAISTRGGSTYYADSVKGRFTISRDNAKNTVYLQMNSVKPEDTAVYYCATGKTVGRYHYEYWGQGTQVTVSS | low polyreactivity
QVHLVESGGGLVQAGVSLRLSCAASGLTFGPYAMGWYRQAPGKERELVAAITSGGNTNYADSVKGRFTISRDNAKNTVYLQMNSLKPEDTAVYYCATSYYLAYRSITPYDYWGQGTQVTVSS | low polyreactivity
QVHLVESGGGLVQAGVSLRLSCAAYVRIFGRNAMGWYRQAPGKEREFVAAITYSGTSTYYADSVKGRFTISRDNAKNTVYLQMNSLKREDTAVYYCNAQYLPSHVYGRYSSTFNYWGQGTQLTVSS | low polyreactivity
QVHLVESGGGLVQAVSSLRLSCAASGSTFRAYAMGWYRQEPGKDRELVARITFSGGSTYYADSVKGRFTISRDNAKNTVYLQMNSLKPEDTAVYYCNARRTYLDRYNYWGQGTQVTVSS | high polyreactivity
QVHLVESGGGVVQAGGSLRLSCAASGRIFPSYDRGWYRQAPGKERELVATISSRGDSTYYADSVKGRFTISRDNAKNTVYLQMNSLKPEDTAVYYCAAERPFWEYDYWGQGTQVTVSS | low polyreactivity
QVHLVESGGRLVQAGGSLRLSCAASGGTFYQYTMGWYRQAPGKERELVAAITRSGGSTRYADTVKGRFTISRDNAKNTVYLQMNSLKPEDTAVFYCAARSGYPSFEYWGPGTQVTVSS | high polyreactivity
QVHLVESGGVLVQAGGSLRLSCAASGSIFAKYAMGWYRQAPGKERELVAAISRSSVRTRYADSVKGRFTISRDNAKNTVYLQMNSLKPADTAVYYCNAYYRSYAYSHLDYWGQGTQVTVSS | high polyreactivity
QVHLVESGGVLVQAGGSLRLSCAASGSPFTKYAMGWYRQAPGKERELVAAFTGGGGSTYYADSVKGRFTISRDNAKNTVYLQLNSLKPEDSAVYYCAAKVALSRFRQWSYDYWGQGTQVTVSS | low polyreactivity
QVHLVESGRGLVQAGGSLRLSCAASGSTFGWNTMGWYRQAPAKERELVAAISWSGDRTYYADSVKGRFTISRDNAKNTVYLQMNRLKPEDTAVYYCARQRYYGYYYWGQGTQVTVSS | high polyreactivity
QVHLVESGVGLGQAGGSLRLSCAASGSIFYSNAMGWYRPAPGKERELVATITWSGGRTYYADSVKGRFTISRDYAKNTFYLQMHSLKPEDTAVYYCAAVSIYWGHGTQVTVSS | low polyreactivity
QVHLVESGVGLVQAGGSLRLSCAASGRIFFANPIGWYRQAPGKERELVAANSRGGRTNYADSVKGRFTISRDNAKNTVYLQMNSLNPEDTAVYYCAAVRLSHAPSYYLYGMDYWGQGTQVTVSS | low polyreactivity
QVHLVESGVGLVQAGGSLRLSCAAYGYTFTRNAKGWSRQAPGKERELVAAISKRGGTTYYADSVKGRFTISRDNEKYSVYLQMNSLKPEDTAVYYCAKDGGITGGYWGQGTQVTVSS | high polyreactivity

Sequence | polyreactivity (PSR sort gate)
QVHLVESGVGLVQAGGSLRLSCASSGRIFYDNSMGWYRQAPGKERELVAAISYRGGSTYYADSVKGRFTISRDNAKNTVYLLMNSLKPEDTAVYYCARAGFTTCPDHDSWGQGTQVTVSS | high polyreactivity
QVHLVESGVGLVQAGVSHRLSCAASGSTYRGYAMGWYRQAPGKERELVAPITYISDSTYYADSVKGRFTISRDNAKNTVYLQMNSLKPEDSAVYYCNDYYDGDWRYTSQETGDNWGQGTQVTVSS | low polyreactivity
QVHLVESVGGLLQAGGSLPLSCPASGSTFYDYAMGWYRPAPGKERELVASITTGGDSTYYADSVKGRFTISRDNAKNSVYLQMKSLIPEDSAVYYFNADWYYWFSNYQGAPEMDYWGQGTQVSVSS | high polyreactivity
QVHLVESVGGLVQAGGSLRLSCAASGRIFGYYAMGWYRQAPGKERELVAAISTNGGTTYYADSVKGRFTISRDNAKNTVYLQMNSLKPEDTAVYYCAATYTVPGHARYDYWGQGTQVTVSS | low polyreactivity
QVHLVESVGGLVQAGGSLRLSCTASGSTCVAYDMGWYRQAPGQERDLVAAITSSGGRTYYADSVKGRFKFSLDNAMNTVYLQMNSLKPEDTAVYYCAAVTHGRYDWGQGPQVTVSS | high polyreactivity
QVHLVESVGGLVQAGGSLRLSSAASGSTFGYYAMGWYRQAPGKERELVAAINARGGSTYYADSVKGRFTISRDNAKNTVYLQMNSLKPEDTAVYYCAAVHIYSYGIYDYWGQGTQVTVSS | high polyreactivity
QVHLVESVGRLVQEGGSLRLICAASAFNIYTYAMGWSRQAPGKEREMVAAISKSGGSTYSADSVKGRFTISRDNAKNTVYVQMNSLKPVDTAVYYCAVSDARHLGSGRYYWCQGTQVTVSS | low polyreactivity
QVHLVETGGALVQAGGSLRISCAASGLTFLDYAMGWYRQSTGKERELGAAITSGGSTNYADSVKGRFTISGDNATTTVYFQMISLKPEDTAVYYCATDLEVSAYDYWGQGNQVTVSS | low polyreactivity
QVHLVETGGCLVQAGGSLRLSCAASGRTFYQNTMGWYRQAPGKERELVAAISSGGSTHYADSVKGRFTISRDNAKNTVYLQMNSLKPEDTAVYYCAKRYFYSYRYGYWGQGTQVTVSS | high polyreactivity
QVHLVETGGGLVQAGGSLRLSCAASGITFDQYAMGWYRQAPGKERELVAAITGSGGNTYYADSVKGRFTISRDNAKNTVYLQMNSLKPEDTAVYSCGAAVGRARDYWGQGTQVTVSS | low polyreactivity
QVHLVQSGGGIDQAGGSLRLSCAASGSTYVVNTMGWYRQAPGKDRELVAANTQSGGSTFYADSVKGRFTISRDNAKNTVYLHMTSLKAEDTAVYYCNAGDFEGAVVVFIQHGGYYWGQGTQVTVSS | low polyreactivity
QVHLVVSGGGLVQAGGSLRLSCAAYGRTFRIYAMGWYRQAPGKDRELVARITKRAGSTYYADSVKGRFTISRDNAKNTVYLQMNRLKPEDTSVYYCAADVRVQYRQDLTYDYWGQGTQVTVSS | high polyreactivity
QVHLVVSWGGLVQAGGSLRLSCSASGITFKRYAMGWYRQSRGNERELVAAINWNGCGTYYADSVKGRFTISRDNAKNTVYLQMNSLKPEDTAVYYCAAGLAYWYWRGYDYWGQGTQVTVSS | high polyreactivity
QVHRVESGGGLVQAGASLRLSCAASGIIFDTYAMGCYRQAPGKEREIVAAITWNGGSTYYADSVKGRFTISRDNAKNPVYLQMNSLKPEDTPVYYCAKLPRTLTEYGYKGYYWGQGTQVTVSS | low polyreactivity
QVHVVESGGGLVQAGGSLGLSCAASGITFTAYAMGWYRQAPGKERELVATINSTGITNYADSVKGRFTISRDNSKNTVFLQMNSLKPEDTAVYYCAADLLDISSYDGMDYWGQGTQVTVSS | low polyreactivity
QVHVVESGGGLVQAGGSLRLSCAASGRTFYGYAMGWYRQAPGKERELVAGITSGGNTNYADSVKGRFTISRDNAKNTVYLQMNSLKPEDTAVYYCAADRYSFRGDYYWGQGTQVTVSS | low polyreactivity
QVKIVESGGGLVQAGGSLRLSCAATGITFAWYAMGWYRQAPGKERELVAAITWSGDSTYYADSVKGRFTISRDNAKNTVYLQMKSLKPEDTAVYYCAAEGLVFWFGTPYDYWGQGTQVTVSS | high polyreactivity
QVKLEESAGGLVQSGGSLRISCAASGSTLVSNAMGWYRQAPGQERELVADNSLSGGSTYYADSVKGRFTISRDYAKNTVYLQMNSLKPEDTEVYYCARVAPSSGVRWYYYWGQGTQVTVSS | high polyreactivity
QVKLEESGGGLVQEGGSLRISCAASVRIFGNYSMGWSRQAPGKEMELVAAIDLSGDSTYYADSVKGRFTISRDNAKNTVYLQMNSLKPEDTAVYYCAATDWFSEYYWGQATQVTVSS | low polyreactivity
QVKLLDSGGGLVQAGGSLRLSCAASGRNFYYYAMGWYRQAPGNERELVAAISSCGSTYADSVKGRFTISRDNAKTTVYLQMNSLKPEDTAVYYCAAYLSRLGPSGYYYWGQGTQVTVSS | high polyreactivity
QVKLLESGGGLVQAGGSLRLTCAASGFIFRRYTMGWYRHAPGEEREWVAAISITGSRTYYADSVKGRFTISPDNAKNNVYLQMNSLKPEDTAVYYCAADPDKSSAGDFDYWGHGTQVTVSS | high polyreactivity
